Reference: patent US20230176070A1

T1: PDZ domain of mitochondrial outer membrane protein 25 (mammalian (so in the source)) (UniProt P57105)
T1 sequence (looked up): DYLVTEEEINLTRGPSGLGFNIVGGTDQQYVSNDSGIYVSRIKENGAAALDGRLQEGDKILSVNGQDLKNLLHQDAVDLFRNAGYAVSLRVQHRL


Tests used:
[1] = molecular target: human serum albumin (human) (UniProt P02768); assay: indirect ELISA, HSA coated
[2] = molecular target: glutathione S-transferase [GST: P08515]; assay: indirect ELISA, GST coated
[3] = molecular target: GST fusion PDZ mutant protein (R46E:K48D) (mammalian (so in the source)) (UniProt P57105); assay: indirect ELISA, PDZ R46E:K48D coated
[4] = molecular target: GST fusion PDZ mutant protein (R46E:K48D) (mammalian (so in the source)) (UniProt P57105); assay: ELISA, wild type PDZ against PDZ R46E:K48D
[5] = molecular target: T1, PDZ domain of mitochondrial outer membrane protein 25 (mammalian (so in the source)); assay: indirect ELISA, wild type PDZ coated

Sequence of human serum albumin (human) (P02768 25-609 limits assumed): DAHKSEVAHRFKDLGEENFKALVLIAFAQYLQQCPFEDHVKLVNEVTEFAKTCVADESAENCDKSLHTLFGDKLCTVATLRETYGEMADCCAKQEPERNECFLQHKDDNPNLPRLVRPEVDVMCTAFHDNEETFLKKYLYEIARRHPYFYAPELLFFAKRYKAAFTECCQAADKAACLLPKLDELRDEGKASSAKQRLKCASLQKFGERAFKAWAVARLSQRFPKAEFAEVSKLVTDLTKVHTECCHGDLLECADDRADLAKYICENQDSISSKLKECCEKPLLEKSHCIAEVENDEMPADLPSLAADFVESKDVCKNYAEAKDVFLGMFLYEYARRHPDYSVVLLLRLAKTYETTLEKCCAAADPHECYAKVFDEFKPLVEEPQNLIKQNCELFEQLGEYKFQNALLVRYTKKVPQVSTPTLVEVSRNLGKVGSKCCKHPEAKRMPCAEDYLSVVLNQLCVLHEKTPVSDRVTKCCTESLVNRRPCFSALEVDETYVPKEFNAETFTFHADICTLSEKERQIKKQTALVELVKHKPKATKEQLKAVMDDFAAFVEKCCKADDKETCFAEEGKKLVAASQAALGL
Sequence of glutathione S-transferase [GST: P08515] (P08515 whole entry, the tested form may be a part): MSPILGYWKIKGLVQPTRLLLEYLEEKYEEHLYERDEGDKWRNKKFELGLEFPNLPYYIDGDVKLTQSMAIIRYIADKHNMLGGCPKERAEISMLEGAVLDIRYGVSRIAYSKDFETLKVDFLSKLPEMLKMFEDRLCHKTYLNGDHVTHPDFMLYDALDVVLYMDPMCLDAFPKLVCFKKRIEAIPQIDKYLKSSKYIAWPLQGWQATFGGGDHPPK

Binder	ELISA affinity (LogIC50 (oD450nm)) [1]	ELISA affinity (LogIC50 (oD450nm)) [2]	other results
H39 (VHH) VHH: QVQLVESGGGLVQAGVSLRLSCAASERTFSSYIMGWFRQAPGKEREFIAAISWSGGNTDYAGSVQGRFTISRDNAQNTVYLQMNSLEPEDTAVYYCAADATHSWSYGSRWYDRNYNYWGQGTQVTVSS	5.2	–	–
H13 (VHH) VHH: HVQLVESGGGLVQAGGSLRLSCAASGRTFSTYHMGWFRQAPGKAREFVAAITGSGGITYYADSVKGRFTISRDNAKNTVYLQMNSLKPEDTAVYYCAADTRAYGLVPSTTSSRYNYWGQGTQVTVSS	1.96	–	–
G52 (VHH) VHH: EVQLVESGGGLVQAGGSLRLSCAASGSTFSSKPIGWYRQAPGKGRDLVAAIGGGSSTFYVDSVKGRFTMSRDNAKNTVALQMNSLKPEDTAVYYCNEYLGPKVLPIGSWGQGTQVTVSS	–	1	–
NbPDZ P10 (VHH) VHH: DVQLVESGGGLVQAGGSLRLSCTASGRTFSTYTMAWFRQAPGKEREFVAAITWSGTYYADSVKGRFTISRDNAKNTMYLQMNSLKPEDTAVYICAAVIGSTVDSYSPSDPLEYDYWGQGTQVTVSE	–	–	Mutant ELISA affinity (LogIC50 (oD450nm)) [3]: 3.83; Affinity fold change [4]: 23.5 fold
H23 (VHH) VHH: DVQLVESGGGLVQAGGSLTLSCAASGRTFSSSTMGWFRRAPGKEREFVAAISGSARTTDYADSVKGRFTISRDNAKNTVYLQMISLKPEDTAIYYCARKRVVDVTTSNYELRYDYWGQGTQVTVSS	1.62	–	–
H31 (VHH) VHH: QVQLVESGGGLVQPGGSLRLSCTPSGFRLEDYPIAWFRQAPGKEREGLSCITSGDGRTYYEESVKGRFTISRDNAQNKVYLQMNKLTPEDTAVYHCATVPSDNLCGYLHRRPFASWGQGTQVTVSS	1.07	–	–
G53 (VHH) VHH: HVQLVESGGGLVQAGGSLRLSCVASGFTYSTYTMGWFRQAPGKEREIVAAKNWSGARIYYTESVKGRFTISRDSGSNTMYLQMDSLKPEDTAVYYCAARLTWTDTTTPTTYPYWGQGTQVTVSS	–	5.37	–
H40 (VHH) VHH: EVQLVESGGGLVQAGASLRLSCAASGGTFSSYIMGWFRQAPGKEREFVAAISWSGRSTHYADSVKGRFAISRDNDRVYLQMNSLKPEDTAVYSCAADPNYTWRDDRYYREEGYTYWGQGTQVTVSS	3.16	–	–
G54 (VHH) VHH: QVQLVESGGGLVKPGESLKLSCVASGETLSSYIMGWFRQAPGKEREFVAAVSWSGNQQDYADSVKGRFTISRDNAEKTVDLQMNSLNPEDTAVYYCAGDQIGFWSSRTQAHEYEYWGQGTQVTVSS	–	1.54	–
P2 (VHH) VHH: DVQLVESGGGLVQAGGSLRLSCAASGHTFSSYTMGWFHQAPGKEREFVAEISGTGGNTGYADSVKGRFTISRDNAKNTVYLQMNSLKPEDTAVYYCAAVIGSPTDSSDYRSSLDYDYWGQGTQVTVSE	–	–	WT ELISA affinity (LogIC50 (oD450nm)) [5]: 5.44; Mutant ELISA affinity (LogIC50 (oD450nm)) [3]: 4.35; Affinity fold change [4]: 12.1 fold
P3 (VHH) VHH: DVQLVESGGGLVQAGGSLRLSCAASGRTFSSYTMGWFHQAPGKEREFVAEIGGTGGNTGYADSVKGRFTISRDNAKNTVYLQMNSLKPEDTAVYYCAAVIGSPTDSSDYRSSLDYDYWGQGTQVTVSE	–	–	WT ELISA affinity (LogIC50 (oD450nm)) [5]: 5.26; Mutant ELISA affinity (LogIC50 (oD450nm)) [3]: 4.78; Affinity fold change [4]: 3.04 fold
H42 (VHH) VHH: HVQLVESGGGLVQAGGSLRLSCAASGLTFSNYAMGWFRQAPGKEREFVVAISWSGANTYYSDSVKGRFTASRDNAKKTVYLQMNSLKPEDTAVYYCAADYRGLGYSTAHEYDYWGQGTQVTVSS	4.92	–	–
H44 (VHH) VHH: EVQLVESGGGLAQAGGSLRLSCAASGGTFSNSCMGWFRQAPGMEREFVAIIRSTGHTTYADSVEGRFTVSRDIAKNTVYLEMNSLKPEDTAVYSCAAGASDYGCYHTSGISYWGQGTQVTVSS	5.62	–	–
G58 (VHH) VHH: EVQLVESGGGLVQAGGSLRLSCAGSGDTFSRYTLGWFRQAPGKEREFVAGISWSGGSTSYANSVKGRFTISRDNAKNTMYLQMNSLKPEDTAVYTCAAPGLPGTVVVGASDFYVYWGQGTQVTVSS	–	1.54	–
H37 (VHH) VHH: QVQLVESGGGLVQAGGSLRLSCAASGLTFSNYALGWFRRAPGKERDFVAAISYSGGSTDYADSVKGRFTISRDNAKNTVYLQMNSLKPEDTAVYYCAAAYLGWGTARTAYEYWGQGTQVTVSS	1.49	–	–
H38 (VHH) VHH: HVQLVESGGGLVQAGGSLRLSCAASELTFSNYAMGWFRRAPGKERGFVAAISYSGGSTDYADSVKGRFTISRDNAKKTVYLQMNSLKPEDTAVYYCAAAYMGWGTARSAYEYWGQGTQVTVSS	2.44	–	–
H10 (VHH) VHH: DVQLVESGGGLVQAGGSLRLSCRASGLPFGPYTMGWFRQTPGQEREFVAAITWSSMNTNYADSVKGRFTISRDSAKNTVYLQMNTLKPDDTAVYYCAADDRAVPMLGDFEDYIYWGQGTQVTVSS	1.46	–	–
H33 (VHH) VHH: HVQLVESGGGLVQAGGSLRLSCAASGRTLSSYDMGWFRQPPGKEREFVAAITRHDFNTFYRDSVKGRFTISRDNAKNTVYLQMNSLKSEDTAVYFCAARLDPIFASNSEYAPLYDYWGQGTQVTVSS	5.03	–	–
H34 (VHH) VHH: QVQLVESGGGLVQAGGSLRLSCAASGRTLSSYDMGWFRKAPGKEREFVAAITRHDYNTYYRDSVKGRFTISRDNAKNTVYLQMNSLKSEDTAVYFCAARLDPIFASNSAYSNLYDYWGQGTQVTVSS	5.07	–	–
H32 (VHH) VHH: HVQLVESGGGLVQAGGSLRLSCAASDTIDNYARAWFRQAPGKEREFVAAITWTFGTPYYTDSVKGRFTISRDDAKNTVYLQMNSLKPEDTAVYYCAASLYLPVRTASGGYRLDTDRPQYWGQGTQVTVSS	5.33	–	–
P4 (VHH) VHH: HVQLVESGGGLVQAGGSLRLSCAAAGRTSSDYAMGWFRQAPGKEREFVSAINWSGISTYYADSVKGRFTISRDNAKNTVHLQMNSLKPEDTAVYYCAAEKLESLRNWHDPLMYDYWGQGTQVTVSE	–	–	WT ELISA affinity (LogIC50 (oD450nm)) [5]: 4.42; Mutant ELISA affinity (LogIC50 (oD450nm)) [3]: 4.58; Affinity fold change [4]: 1 fold

More lines, main results first:

ELISA affinity (LogIC50 (oD450nm)) [1]	ELISA affinity (LogIC50 (oD450nm)) [2]	Binder	other results
–	6.01	G77 (VHH) VHH: QVQLVESGGGLVQAGGSLRLSCTASRSTFRVNPAGWYRQAPGKERELVARITSGGSTNYADSVKGRFTISRDNAKNTVYLQMNSLKPEDTAVYYCNVPYYMEDGYEHDAWGQGTQVTVSS	–
–	5.68	G64 (VHH) VHH: HVQLVESGGGLVQAGGSLRLSCKVSGTTFSNSAIGWYRQAPGNRRELVATINYGGSTNYADSGKGRFTISKDNAKNTVYLQMNSLKPEDTAVYYCKTTEWREDGYEYDVWGQGTQVTVSS	–
–	1.75	G70 (VHH) VHH: QVQLVESGGGLVQAGGSLRLSCAASGATFSINAIGWYRQAPGKQRELVAVIKSGNSINYADSVKGRFTISRDHAKNTVYLQMNNLKPEDTAVYYCHADQPPETGWGTWNDLWGQGTQVTVSS	–
–	3.97	G65 (VHH) VHH: QVQLVESGGGLVQAGGSLRLSCATSGRTFSTYALGWFRQRPGKEREFVATIHWSDGRTLYADSVKGRFTLSRDNAQNTVYLQMNSLKPEDTAIYYCAASIYRIGSYDVSTSQGYDYWGQGTQVTVSS	–
–	4.29	G66 (VHH) VHH: QVQLVESGGGLVQAGGSLRLSCATSGRTFSTYAMGWFRQRPGKEREFVATIHWSDGRTLYTDSVKGRFTLSRDNAQNTVYLQMNSLKPEDTAVYYCAAATYRIGSYDVSTSQGYNYWGQGTQVTVSS	–
–	1.07	G68 (VHH) VHH: EVQLVESGGGLVQAGGSLRLSCTASGSIFSVNVMDWYRQAPGKQREFVATITGSGATNYADSVKGRFTISRGSAKNTVYLQMNSLKPDDTAVYYCHNADYREDGYEYDNWGQGTQVTVSS	–
–	0.955	G73 (VHH) VHH: EVQLVESGGGLVQAGGSLRLSCAASGRTFSDDAMAWFRQAPGKEREFVAAISWHPENTFYADSVKGRFTISRDKTKNTEYLQMNSLKPEDTAVYYCAAGPRLEIGDYAQYKYWGQGTQVTVSS	–
–	3.69	G69 (VHH) VHH: QVQLVESGGGLVQAGGSLRLSCVDSGRTFSSNTMGWFRQAPGKDRDFVAAINRSGVITNYADSVKGRFTISRDNAKNTVYLQLNSLKPEDTAVYYCAARAGGWPSQIPVEYDRWGQGTQVTVSS	–
–	3.6	G67 (VHH) VHH: HVQLVESGGGLVQAGGSLRLSCVASGHTVSNYAMAWFRQAPGKEREFVAGISWRATLTYYRDSVKGRFTISRDNAKNTVYLQMSSLKPEDTAVYFCASDRTPYVSRGTSLVEYDYWGQGTQVTVSS	–
